Results reported in IntAct's records for PubMed 21119616.

B1: Retinoblastoma-associated protein (Homo sapiens), P06400 (parent)
chain: MPPKTPRKTAATAAAAAAEPPAPPPPPPPEEDPEQDSGPEDLPLVRLEFEETEEPDFTALCQKLKIPDHVRERAWLTWEKVSSVDGVLGGYIQKKKELWGICIFIAAVDLDEMSFTFTELQKNIEISVHKFFNLLKEIDTSTKVDNAMSRLLKKYDVLFALFSKLERTCELIYLTQPSSSISTEINSALVLKVSWITFLLAKGEVLQMEDDLVISFQLMLCVLDYFIKLSPPMLLKEPYKTAVIPINGSPRTPRRGQNRSARIAKQLENDTRIIEVLCKEHECNIDEVKNVYFKNFIPFMNSLGLVTSNGLPEVENLSKRYEEIYLKNKDLDARLFLDHDKTLQTDSIDSFETQRTPRKSNLDEEVNVIPPHTPVRTVMNTIQQLMMILNSASDQPSENLISYFNNCTVNPKESILKRVKDIGYIFKEKFAKAVGQGCVEIGSQRYKLGVRLYYRVMESMLKSEEERLSIQNFSKLLNDNIFHMSLLACALEVVMATYSRSTSQNLDSGTDLSFPWILNVLNLKAFDFYKVIESFIKAEGNLTREMIKHLERCEHRIMESLAWLSDSPLFDLIKQSKDREGPTDHLESACPLNLPLQNNHTAADMYLSPVRSPKKKGSTTRVNSTANAETQATSAFQTQKPLKSTSLSLFYKKVYRLAYLRLNTLCERLLSEHPELEHIIWTLFQHTLQNEYELMRDRHLDQIMMCSMYGICKVKNIDLKFKIIVTAYKDLPHAVQETFKRVLIKEEEYDSIIVFYNSVFMQRLKTNILQYASTRPPTLSPIPHIPRSPYKFPSSPLRIPGGNIYISPLKSPYKISEGLPTPTKMTPRSRILVSIGESFGTSEKFQKINQMVCNSDRVLKRSAEGSNPPKPLKKLRFDIEGSDEADGSKHLPGESKFQQKLAEMTSTRTRMQKQKMNDSMDTSNKEEK
partner: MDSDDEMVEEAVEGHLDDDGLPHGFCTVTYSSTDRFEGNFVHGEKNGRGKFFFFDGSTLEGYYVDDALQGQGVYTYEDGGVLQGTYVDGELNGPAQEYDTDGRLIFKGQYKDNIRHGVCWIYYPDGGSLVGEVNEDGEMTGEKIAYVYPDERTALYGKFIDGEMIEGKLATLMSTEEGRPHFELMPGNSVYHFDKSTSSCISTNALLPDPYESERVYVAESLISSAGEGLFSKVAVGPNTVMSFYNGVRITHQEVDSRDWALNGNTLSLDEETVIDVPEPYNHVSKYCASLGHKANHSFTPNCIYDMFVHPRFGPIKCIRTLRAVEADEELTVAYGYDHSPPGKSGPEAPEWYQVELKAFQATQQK

Variants of: B1
Details: with setd7_human SETD7, Q8WTS6

Row | effect of a mutation on the interaction | Variant
1 | disrupting interaction | K810R
